The values below come from patent US20250171542A1 (ADEPT THERAPEUTICS, published 2025).

First the molecules themselves.
T1: BH-H2 (Sino Biological, Cat #11559-H08H) (UniProt O75144 19-258)
T1 sequence (looked up): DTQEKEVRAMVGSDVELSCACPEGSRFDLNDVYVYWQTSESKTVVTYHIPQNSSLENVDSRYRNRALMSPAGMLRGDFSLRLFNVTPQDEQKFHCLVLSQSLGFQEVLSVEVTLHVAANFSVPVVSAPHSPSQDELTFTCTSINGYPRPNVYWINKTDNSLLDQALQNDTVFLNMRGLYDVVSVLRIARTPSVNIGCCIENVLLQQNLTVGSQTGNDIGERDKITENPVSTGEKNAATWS

T2: canine PD-L1 (Acro Biosystems, Cat #PDL-C52H4) (canine, UniProt E2RKZ5 19-236)
T2 construct: not shown: The vendor's tag, probably a polyhistidine tag
T2 sequence: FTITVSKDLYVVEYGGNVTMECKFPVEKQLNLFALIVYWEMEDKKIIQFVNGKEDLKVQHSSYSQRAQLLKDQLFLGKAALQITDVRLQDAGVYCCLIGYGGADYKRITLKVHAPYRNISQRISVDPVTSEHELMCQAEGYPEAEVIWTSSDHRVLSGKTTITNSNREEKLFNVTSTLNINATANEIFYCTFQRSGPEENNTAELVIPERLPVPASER

T3: PD-L2 (Sino Biological, Cat #10292-H08H) (UniProt Q9BQ51 20-219)
T3 sequence (looked up): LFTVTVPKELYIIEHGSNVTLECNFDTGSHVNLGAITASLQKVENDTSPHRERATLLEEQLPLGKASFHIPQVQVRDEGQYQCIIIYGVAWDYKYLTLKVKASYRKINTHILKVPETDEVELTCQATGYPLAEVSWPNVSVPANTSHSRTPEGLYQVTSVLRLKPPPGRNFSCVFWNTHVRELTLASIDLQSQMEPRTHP

B1: 74F4 (antibody, human IgG1, V domains shown)
VH: QEQLEESGGGLVQPEGSLTLTCTASGFSFSGDYYMSWVRQAPGKGLEWIASIYTGSLNTYYATWAKGRFTISLTSSTTVTLQMTSLTAADTATYFCARRNKNADYGHFDLWGPGTLVTVSS
VL: YDMTQTPASVEVAVGGTVTIKCQASQSINDRLAWYQQSPGQPPKLLIYGASTLASGVPSRFKGSGSGTDFTLTISDLECADAATYYCQQGWTVSSLDNAFGGGTEVVAK
B2: 55H3/76D6 (antibody, human IgG1, V domains shown)
VH: B1 VH with A24V, I49V, T59S
VL: B1 VL with Q26E, S38K, G49A, K62R, K109M
B3: 27A2 (antibody, human IgG1, V domains shown)
VH: QEQLEESGGGLVQPEGSLTLTCTASGFSFSSNHYMSWVRQAPGKGLEWIGSIGVGSGITDYASWAKGRFTISKASSTTLTLQMTTLTAADTAIYFCARWTSGGGGFGLWGPGTLVTVSS
VL: QVLTQTSSPVSAAVGGTVTINCQSSQTIYSDYLFWYQQTPGQPPKLLIYQTSTLASGVPSRFKGSGSGTEFTLTISEIQCDDAATYYCQGYYSGYIWTFGGGTEVVVR
B4: 56H3 (antibody, human IgG1, V domains shown)
VH: B3 VH with E5V, G26E, S31N, H33Y, I49L, V54I, L79V
VL: B3 VL with T39K, K63S, E70Q, E77G, I78V, R108N

Numbering of substitutions follows the chain as printed.

T5 sequence (Q9NZQ7 19-290 limits assumed): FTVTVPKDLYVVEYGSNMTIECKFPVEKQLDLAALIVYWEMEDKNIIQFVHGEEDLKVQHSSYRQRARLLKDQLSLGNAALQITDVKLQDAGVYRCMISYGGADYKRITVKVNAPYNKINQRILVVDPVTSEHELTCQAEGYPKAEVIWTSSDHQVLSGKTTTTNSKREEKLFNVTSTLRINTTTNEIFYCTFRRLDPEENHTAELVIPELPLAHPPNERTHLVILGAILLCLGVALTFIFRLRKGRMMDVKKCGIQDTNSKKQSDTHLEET
T7 sequence (Q9NZQ7 19-238): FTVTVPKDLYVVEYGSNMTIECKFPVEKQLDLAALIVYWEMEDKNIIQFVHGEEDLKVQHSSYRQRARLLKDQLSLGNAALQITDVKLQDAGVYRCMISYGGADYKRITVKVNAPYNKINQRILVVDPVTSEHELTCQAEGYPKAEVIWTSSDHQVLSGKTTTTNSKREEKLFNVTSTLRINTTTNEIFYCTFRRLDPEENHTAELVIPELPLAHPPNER

The target of the first assay is T4, cynomolgus PD-L1-His (Sino Biological, Cat. 90251-C08H) (cynomolgus, UniProt Q9NZQ7 19-238 (human entry)).
T4 construct: Bought protein; also called Cyno PD-L1; Cynomolgus PD-L1 ECD-His; not shown: His tag
T4 sequence (Q9NZQ7 other isoform, or with tags, fused parts or gaps C08H C08H limits assumed): as the sequence (Q9NZQ7 19-238) above, with A33T, A34S, S62N, R68Q, Q82R, F173L, T185A, T192I, H215L counted along it
Put plainly: ELISA, coated cyno PD-L1-His. As to the method: (§1) Briefly, Maxisorp plates (Nunc) were coated with 100 ul/well of 0.5 μg/ml human PD-L1-His (Sino Biological, Cat #10084-H08H) or cynomolgus PD-L1-His (Sino Biological, Cat. 90251-C08H) protein diluted in 1×PBS (GIBCO) overnight at 4° C. Plates were washed three times with 300 μl/well washing buffer (1×PBST, diluted from 20×PBST (Thermo Scientific) with distilled water)) and then blocked with 300 μl/well of blocking buffer (1×PBST/I % BSA) for 2 hours at RT on shaker (100 rpm). Plates were washed and added with 100 μl/well of testing antibodies, which were serial diluted with assay buffer (PBST/1% BSA). The antibodies were incubated at room temperature for 2 hours on plate shaker at 100 rpm. Plates were washed. One hundred microliter of horseradish peroxidase (HRP) conjugated detection antibody was added into each well and incubated at room temperature for 1 hour on plate shaker at 100 rpm. Plates were washed and added with 100 μl/well TMB substrate for color development at room temperature in dark for up to 10 minutes. After addition of 50 μl/well of stop solution (1N H₂SO₄), plates were read at 450 nm on a plate reader (SpectraMax M5).
(§2) Anti-HEL isotype control (Biolntron) was used as negative control.
Molecule B1 showed an EC50 of 0.0125 nM.

B2 gave an EC50 of 0.0126 nM.

As for B3, the half-maximal effective concentration (EC50) is 0.0113 nM.

Regarding B4, the midpoint of the response, the EC50, lay at 0.0076 nM.

A further assay concerns the target T5, human PD-L1 expressed on cell surface (human, UniProt Q9NZQ7 19-290).
T5 construct: also called cell surface PD-L1
Put plainly: flow cytometry, MDA-MB-231-GFP cells. As to the method: Cells were then resuspended in FACS buffer (1×DPBS/1% FBS) at 10⁶/ml concentration. One hundred microliter (100 μl) of cells were aliquoted into a single well in 96 well plates. The antibodies to be tested were serially diluted at 1:3 fold starting at 15 ug/mL and were then added into each well. The antibodies were mixed with cells and the mixtures were incubated on ice for 1 hour. […] After washing with FACS buffer, stained cells were resuspended at diluted […] (Biolegend, Cat #420404, used at 1:100 dilution) and analyzed on Guava 11HT (Luminex). Data was analyzed using Flowjo software.
as §2
B1 registered an EC50 of 1.44 nM.

Turning to B2, the EC50 came to 2.93 nM.

B3: the EC50 amounted to 0.14 nM.

Molecule B4 came in with an EC50 of 0.19 nM.

In another assay the target is T5, human PD-L1 expressed on cell surface. The experiment in a line: cell-based or functional assay.
As for B1, the “Internalization (%), FACS, 0.25 µg/ml, 2 h” value was 19%; the “Internalization (%), FACS, 0.25 µg/ml, 4 h” value is 15.3%; the “Internalization (%), FACS, 0.5 µg/ml, 2 h” value was 22.5%; the “Internalization (%), FACS, 0.5 µg/ml, 4 h” value is 15.7%. The “Internalization (%), FACS, 1 µg/ml, 2 h” value came out at 19.5%; the “Internalization (%), FACS, 1 µg/ml, 4 h” value turned out to be 18.2%; the “Internalization (%), FACS, 2 µg/ml, 2 h” value amounted to 24.1%; the “Internalization (%), FACS, 2 µg/ml, 4 h” value stood at 22%.

With B2, the “Internalization (%), FACS, 0.25 µg/ml, 2 h” value was 22.9%; the “Internalization (%), FACS, 0.25 µg/ml, 4 h” value is 20.6%; the “Internalization (%), FACS, 0.5 µg/ml, 2 h” value was 20.8%; the “Internalization (%), FACS, 0.5 µg/ml, 4 h” value was 19.9%. The “Internalization (%), FACS, 1 µg/ml, 2 h” value amounted to 22.1%; the “Internalization (%), FACS, 1 µg/ml, 4 h” value came out at 17.9%; the “Internalization (%), FACS, 2 µg/ml, 2 h” value came to 24.2%; the “Internalization (%), FACS, 2 µg/ml, 4 h” value was 22.2%.

Take B3: the “Internalization (%), FACS, 0.25 µg/ml, 2 h” value stood at 18.5%; the “Internalization (%), FACS, 0.25 µg/ml, 4 h” value turned out to be 18.3%; the “Internalization (%), FACS, 0.5 µg/ml, 2 h” value was found to be 15.5%; the “Internalization (%), FACS, 0.5 µg/ml, 4 h” value was 14.7%. Further, the “Internalization (%), FACS, 1 µg/ml, 2 h” value was determined as 13.7%; the “Internalization (%), FACS, 1 µg/ml, 4 h” value is 13.7%; the “Internalization (%), FACS, 2 µg/ml, 2 h” value is 12.7%; the “Internalization (%), FACS, 2 µg/ml, 4 h” value is 9.7%.

As for B4, the “Internalization (%), FACS, 0.25 µg/ml, 2 h” value stood at 16.3%; the “Internalization (%), FACS, 0.25 µg/ml, 4 h” value turned out to be 16%; the “Internalization (%), FACS, 0.5 µg/ml, 2 h” value was 16.1%; the “Internalization (%), FACS, 0.5 µg/ml, 4 h” value came to 19%. Besides, the “Internalization (%), FACS, 1 µg/ml, 2 h” value is 15.3%; the “Internalization (%), FACS, 1 µg/ml, 4 h” value was 9.1%; the “Internalization (%), FACS, 2 µg/ml, 2 h” value was found to be 6.5%; the “Internalization (%), FACS, 2 µg/ml, 4 h” value was determined as 4.8%.

The next assay addresses T4, cynomolgus PD-L1-His (Sino Biological, …). Put plainly: BLI (Gator), cynomolgus PD-L1.
B1 displayed a Kd of 0.01 nM, a koff of 5e-06 s⁻¹ and a kon of 387000 M⁻¹ s⁻¹.

The molecule B2 showed a Kd of 0.03 nM, a koff of 1.1e-05 s⁻¹ and a kon of 307000 M⁻¹ s⁻¹.

On to B3, for which the affinity, expressed as Kd, was 0.03 nM; the koff came to 1.3e-05 s⁻¹; the kon was 390000 M⁻¹ s⁻¹.

With B4, the Kd came to 0.25 nM, the koff was determined as 8.7e-05 s⁻¹ and the kon was 349000 M⁻¹ s⁻¹.

Another assay addresses T1, BH-H2 (Sino Biological, Cat #11559-H08H). The experiment in a line: ELISA.
Turning to B1, the binding result is reported as “no binding”.

Take B2: the binding result is on record as “no binding”.

As to B3, the binding result was “no binding”.

B4: the binding result was “no binding”.

In a further assay the target is T2, canine PD-L1 (Acro Biosystems, Cat …). The experiment in a line: ELISA.
For the molecule B1, the binding result is “no binding”.

Take B2: the binding result is “no binding”.

Regarding B3, the binding result is given as “no binding”.

For the molecule B4, the binding result is recorded as “no binding”.

Another assay deals with T6, rat PD-L1 (Sino Biological, Cat #80450-R08H) (rat, UniProt D4AE25 19-239).
T6 construct: not shown: The vendor's polyhistidine tag
T6 sequence (D4AE25 entry or part of it R08H R08H limits assumed): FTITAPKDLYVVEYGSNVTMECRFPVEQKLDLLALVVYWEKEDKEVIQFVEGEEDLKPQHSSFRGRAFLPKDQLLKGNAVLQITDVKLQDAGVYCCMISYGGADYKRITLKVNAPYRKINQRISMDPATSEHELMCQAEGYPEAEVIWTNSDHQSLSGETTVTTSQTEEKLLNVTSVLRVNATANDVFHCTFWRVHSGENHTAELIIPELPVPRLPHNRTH
The experiment in a line: ELISA.
As for B1, the binding result is “no binding”.

For B2, the binding result was “no binding”.

As for B3, the binding result is “no binding”.

In the case of B4, the binding result is reported as “no binding”.

A further assay has as its target T3, PD-L2 (Sino Biological, Cat #10292-H08H). The experiment in a line: ELISA.
As for B1, the binding result was “no binding”.

With B2, the binding result was “no binding”.

Take B3: the binding result is given as “no binding”.

As for B4, the binding result was “no binding”.

A further assay addresses T7, human PD-L1-His (Sino Biological, Cat #10084-H08H) (human, UniProt Q9NZQ7 19-238).
T7 construct: Bought protein; also called human PD-L1 ECD-His; recombinant human PD-L1-His protein; not shown: His tag
Put plainly: ELISA, coated human PD-L1-His. The method, then:
as §1, §2
B1: the EC50 came out at 0.0157 nM.

For the molecule B2, the EC50 came out at 0.0199 nM.

Take B3: a half-maximal effect (EC50) was put at 0.0146 nM.

B4 gave an EC50 of 0.0172 nM.

Another assay addresses T7, human PD-L1-His (Sino Biological, Cat …). The experiment in a line: BLI (Gator), antibody on HFC probe, human PD-L1-His in solution. As to the method: The affinity of the binding of the exemplary anti-PD-L1 antibodies of the present disclosure was determined. Assay was performed according to the protocol recommended by Gator or Gator Plus (Gator Bio Inc.). Briefly, human PD-L1-His (Sino Biological, Cat #10084-H08H) was serially diluted 4-fold, starting at 4 μg/ml. After three times of regeneration in generation buffer (Gator Bio, Cat #120012) and neutralization of HFC probe (Gator Bio, Cat #160003), 1 μg/ml of antibody to be tested in Q buffer (Gator Bio, Cat #120010) was immobilized onto HFC probe. After a baseline step, probe immobilized with antibody was dipped into antigen solutions. The association and dissociation of antigen from antibody was measured on BLI machine Gator. Affinity was calculated using Gator Bio analysis software.
Table 22 below summarizes the binding affinity to human PD-L1 using Gator.
Consider B1, for which binding was characterised by a dissociation constant (Kd) of 0.36 nM, the koff was found to be 0.000238 s⁻¹ and the kon was found to be 648000 M⁻¹ s⁻¹.

Turning to B2, the Kd was found to be 0.64 nM, the koff was determined as 0.000317 s⁻¹ and the kon worked out at 498000 M⁻¹ s⁻¹.

With B3, binding was put at a Kd of 0.06 nM, the koff came to 3.6e-05 s⁻¹ and the kon was determined as 643000 M⁻¹ s⁻¹.

Molecule B4 displayed a Kd of 0.58 nM, a koff of 0.000399 s⁻¹ and a kon of 686000 M⁻¹ s⁻¹.
